Measured values reported in paper PMC8597016.

Target: Biotinylated CD11b I domain (human)
Assay: BLI

CC8 LukAB (complex)
Kd: 9.41 nM

CC30 LukAB (complex)
Kd: 214 nM
